# Reference: IntAct's records for PubMed 20668449
# B1: Regulator of chromosome condensation (Homo sapiens), P18754 (parent)
# chain: MSPKRIAKRRSPPADAIPKSKKVKVSHRSHSTEPGLVLTLGQGDVGQLGLGENVMERKKPALVSIPEDVVQAEAGGMHTVCLSKSGQVYSFGCNDEGALGRDTSVEGSEMVPGKVELQEKVVQVSAGDSHTAALTDDGRVFLWGSFRDNNGVIGLLEPMKKSMVPVQVQLDVPVVKVASGNDHLVMLTADGDLYTLGCGEQGQLGRVPELFANRGGRQGLERLLVPKCVMLKSRGSRGHVRFQDAFCGAYFTFAISHEGHVYGFGLSNYHQLGTPGTESCFIPQNLTSFKNSTKSWVGFSGGQHHTVCMDSEGKAYSLGRAEYGRLGLGEGAEEKSIPTLISRLPAVSSVACGASVGYAVTKDGRVFAWGMGTNYQLGTGQDEDAWSPVEMMGKQLENRVVLSVSSGGQHTVLLVKDKEQS
# B2: N-terminal Xaa-Pro-Lys N-methyltransferase 1 (Homo sapiens), Q9BV86 (parent)
# chain: MTSEVIEDEKQFYSKAKTYWKQIPPTVDGMLGGYGHISSIDINSSRKFLQRFLREGPNKTGTSCALDCGAGIGRITKRLLLPLFREVDMVDITEDFLVQAKTYLGEEGKRVRNYFCCGLQDFTPEPDSYDVIWIQWVIGHLTDQHLAEFLRRCKGSLRPNGIIVIKDNMAQEGVILDDVDSSVCRDLDVVRRIICSAGLSLLAEERQENLPDEIYHVYSFALR
# Variants of: B1
# Settings: with ntm1a_human NTMT1, Q9BV86
row,effect of a mutation on the interaction,Variant
1,disrupting interaction strength,S2D
2,decreasing interaction,S2V

# Variants of: B1
# Settings: with ntm1a_human NTMT1, Q9BV86
# Remark: another data set of the same source
row,effect of a mutation on the interaction,Variant
1,disrupting interaction,K4Q

# Variants of: B2
# Settings: with rcc1_human RCC1, P18754
row,effect of a mutation on the interaction,Variant
1,disrupting interaction,D180K
2,disrupting interaction,N168K
